Laboratory results: the DeepSol protein solubility set

experiment: soluble on expression in E. coli; label from the status in PepcDB or PDB records

Row | Sequence | soluble on expression in E. coli
1 | MPNAGELASLMEENAMPKVVVRNFAISLDGYGAGPDQSLQNPLGVKGEELHQWAFKTRTFHRMFGKEGGSTGTDENFSEKSFENIGAWVLGRNMFGPVRGAWPDESWKGWWGEEPPYHVPVFVLTHHARPSFTMKGGTEFHFVTDGIEAALDRALTAANGKDVRIGGGVSTIRQYMAAGMIDELHLALAPVFLGKGEQLFEGLDLPALGYRCTGTVAGEGATHLIIEKV | not soluble
2 | MRWNRMNPFGSYKKVVSARSTLKEVLKKAQDGGIVSTAFIYGLENNLLDGVIVADNAGEFKAVPKVATTPEEVLEAAGTKYTVCPNISVLKSAVREYGCEKIGVVGTPCQVRAVRKLMKYPVGFRHVPDKIALIIGIFCMENFPYYGLKLIVEEHCGVKMEDVVKMDIGKGKFWVYTRWGETKAIKLKETHPYEQIACHVCTDYTAELADISTGSVGSPDGWSTVFIRTAKGEEIFNKMVEDGYLEVKPIEEVKPGLGLVEKLALQKKEKNMKEIEHRKELGLPIPYLEHHHHHH | soluble
3 | MGSDKIHHHHHHMDFIEVYPNAIPDDLCDRLILAFEKHSGVVDGQTGNGVDLEKKISRDLTLDNFTDLQPLKNELLSYTLKGTADYFSQYAMALMGAVAVSVSDEQGQAVTLTPSNFERLGKPRAEALVKYLYRSGSINIQKYQKNKGGYPHWHSEQFPQLSHNEALHRVVLYMFYLNDVEEGGETEFYYQQRKISPKKGTMVIAPAGFTHSHRGNMPISNDKYIATSWVMFNRAEQLYAVYA | not soluble
4 | MSGMILDELSWRGLIAQSTDLDTLAAEAQRGPMTVYAGFDPTAPSLHAGHLVPLLTLRRFQRAGHRPIVLAGGATGMIGDPRDVGERSLNEADTVAEWTERIRGQLERFVDFDDSPMGAIVENNLEWTGSLSAIEFLRDIGKHFSVNVMLARDTIRRRLAGEGISYTEFSYLLLQANDYVELHRRHGCTLQIGGADQWGNIIAGVRLVRQKLGATVHALTVPLVTAADGTKFGKSTGGGSLWLDPQMTSPYAWYQYFVNTADADVIRYLRWFTFLSADELAELEQATAQRPQQRAAQRRLASELTVLVHGEAATAAVEHASRALFGRGELARLDEATLAAALRETTVAELKPGSPDGIVDLLVASGLSASKGAARRTIHEGGVSVNNIRVDNEEWVPQSSDFLHGRWLVLRRGKRSIAGVERIGLEHHHHHH | soluble
5 | DVTGLPTGFRDLDRITTGLHPDQLIILAARPAVGKTAFVLNIAQNVGTKQNRPVAIFSLEMGAESLVDRMLAAEGMVDSHSLRTGQLTDQDWNNVTIAQGALADAPIYIDDTPGIKITEIRARSRKLSQEVDDGLGLIVIDYLQLISGTRPENRQQEVSEISRQLKILAKELKVPVIALSQLSRGVEQRQDKRPVLSDI | not soluble
6 | MHHHHHHSSGVDLGTENLYFQSNAMLLPTDLSENSFKVLEYLGDFKKVGVEEIGVLFVINLTKLSTVSGGIDIDHYIDEMSEKAEEVLPEVAQKIEAAGIKAEVIKPFPAGDPVVEIIKASENYSFIAMGSRGASKFKKILLGSVSEGVLHDSKVPVYIFKHDMVVNSLFDRVLVAYDFSKWADRALEYAKFVVKKTGGELHIIHVSEDGDKTADLRVMEEVIGAEGIEVHVHIESGTPHKAILAKREEINATTIFMGSRGAGSVMTMILGSTSESVIRRSPVPVFVCKRGDDE | soluble
7 | RNEHTGELRLGASTTIAQYVLPPLLARFIEKFPQVSLSLFSGNSSEVEKALQEHRIDLALVEGNTRQPNLKYTPFLQDELVAIVHTHSKWMDYDEITLDELKEVPLVLRERGSGTLDVLITALHKHNIKLSDLTIRMHLGSTESIK | not soluble
8 | MGSDKIHHHHHHMSGQLHKMWYFPHMNQHEATVTDGDELQQFIAEAIALVGGVRALASIAGVSERTVYAWKNGERFPSRTNLNRLSEHLEHLSRQGYSPSAPQPHWRALRERMPGSYAPQQPDDTDRLTEEFVFVDKAEARPSAGGGSLETSARAETRYAFRLDWVLQKTPTSEGLRMMEVAGRSMENTLHNGDLVLVNERDVHLVEDRVYVVRVHDEIYVKRFARTPGCYHFRGDNRELAYQDISIDPRDENLDWEVIGRVLWAGKEL | not soluble
9 | MIDKIVFEEDEEYDLTQDSFRYGRVTTGASYNLVTGKIPETVLEQVKAKDDENDDVEFEMDHLEDKEAVQKTKTFDELYESQMPKYFEYQSNFSEVNGIWTLLFDQNHYENMSTFELQAAICAALNSKHYMMICVGIDAFNAVTGVEMSAKDRVVFRMALTRAVAGEFQPPLVKVAPKQLTGVSPMKRDISEVTSSIDVLFIPVIGVTDEVENNRFLIVVRVKEISDKVYQISSGRIYNELEGRVVEMSDMNEAFHKLIVEQSISDIQTRRGSMFMLEPEPFLEDSPVIFTGSKEILRENHEIPNILKENSTERSLSQSLLNLLDIQNIGWIFFGTALSCCIYNNAIKPLVK | not soluble
10 | MSLGKISFPVGVLFSGSGSYAQPARQGFRGAMTAIAHINASRRFPFNLQAHHFDPAGEADRYASLCRQLIRERDVRHVVGCTTSWSRKEAIPVVEKLDALLWYPCVYEGFEVSENLIYVAACANQHLVPLLDYIAPRFGSRAMLVGANYIWGWENNRIARDILHRSGGEVLGERFVSIGDTDIDHLIDEVREKRPDFILNNLIGPSSYAFLRAYQALGEADDRFRPEKCPIISCNLYEGEITGLGHAAAGHFTVSCYFRTLQSPENDSFLKTLAALDPGAIVDAFYAQAFSAVVMIAEAIMRCGSDDADLVRGALRGQSVDTPLGAISVDRWTNHVELPAHIGRARADGSFEIVKREGHHHHHH | not soluble
11 | MVKTEPLQITTELPGRTSAYRIAEVRPQVSGIILKRNFKEGSDIEAGVSLYQIDPATYQATYDSAKGDLAKAQAAANIAQLTVNRYQKLLGTQYISKQEYDQALADAQQANAAVTAAKAAVETARINLAYTKVTSPISGRIGKSNVTEGALVQNGQATALATVQQLDPIYVDVTQSSNDMMRLKQELANGTLKQENGKAKVSLITSDGIKFPQDGTLEFSDVTVDQTTGSITLRAIFPNPDHTMMPGMFVRARLEEGLNPNAILVPQQGLEHHHHHH | soluble
12 | MSTKELEERKVCFFCKILGFLSFPAIKIRIGTPANTISRHLTGFASYCIHLAVGVAHTRPEPELADDSRCYGNILDLVKRKKVTNWTQTRLVVEGKLGEGLRGIAYKVKHRNTMKCLKLLPLSWTSRNKEALEDLVALRSLKTIKKETPNYLTFFDSFVLTNLPASTQDKLNQLDPQCPATHYLGLLVELGSNSLDNTMLTTAVEGLSIVKQLVLSLVIAKRRLDTNHNDVHPGNVLVKRSASPKTLKYTLDGKVIRIPSHGLVVGIIDFSEASFGRANGNSDVGFLSFITEEISKTLSKAENRTFQTAIDGLTDARSITAIYPNASIFKKH | not soluble
13 | ICMNVENEVTHTQLQFNHTDKYCGNIKNLISCKLYQHALTLIDSFRHDKSI | not soluble
14 | GPGSGSDERVVALKDITLAESKHSNAATTKQGASTTNCLQRSNLPPPFAPVRRGEFVMIRGPSGGGKTTLLNIIGSIDSCTEGNIELNGRIIDKDTKESVLADIRLKNIGFVFQTFNLIATMTAAENVELPMTLLGTMSTKAMRLRSRQLLTLVGLRNRINHLPSELSGGEQQRVTIARSLANNPSILLLDEPTGDLDTANTIEVMDLLMRINRRTKTTCIMVTHNPDIECYADRILYVSDGRFAKEVFNALPMCLDLENYTEYLAAKERAITGFAGVGDVEDDSEPRATAAMAECIG | not soluble
15 | MGSSHHHHHHSSGRENLYFQGHMTRSAEPRVLQFCHGYDGPFLDCARQYASLFAGTPYKVTTVFLTGRSDPEVAARCASDEVLFLEYGSRDIRGLKLKAIRDLREIARSRDFRFCIAHRFKPIWIASLATRLPIVGVHHAFGDYQRLSRKVFAGLMSKRLSLLAVSDAVRDDIRRCLPKWPAERIETLYNRIDVAALQAEQVERLSARRQLRLPDEAWVVGNVGRLHPDKDQATLLRGFAAALPRLPQNSLLAILGSGRLEEQLKDLACELGIGERVLFLGQVEEARRYFKAFDAFALSSDHEPFGMVLLEAMVAGVPLIATACGGAREVVEGVGILFPLGDETALAEGLTHLAALDRRQREACARLMLERLETRFSDAAVRREFWRLPTIAGFASESAC | soluble
16 | NKYFENVSKIKYEGPKSNNPYSFKFYNPEEVIDGKTMEEHLRFSIAYWHTFTADGTDQFGKATMQRPWNHYTDPMDIAKARVEAAFEFFDKINAPYFCFHDRDIAPEGDTLRETNKNLDTIVAMIKDYLKTSKTKVLWGTANLFSNPRFVHGASTSCNADVFAYSAAQVKKALEITKELGGENYVFWGGREGYETLLNTDMEFELDNFARFLHMAVDYAKEIGFEGQFLIEPKPKEPTKHQYDFDVANVLAFLRKYDLDKYFKVNIEANHATLAFHDFQHELRYARINGVLGSIDANTGDMLLGWDTDQFPTDIRMTTLAMYEVIKMGGFDKGGLNFDAKVRRASFEPEDLFLGHIAGMDAFAKGFKVAYKLVKDRVFDKFIEERYASYKDGIGADIVSGKADFRSLEKYALERSQIVNKSGRQELLESILNQYLFAE | soluble
17 | MAGDPMVMRLSKIYGKQIYTTKGKYVGYVDEVIIDIDEGRGEVVLLALPGERVGVPYERVTAVGDIILVEATTEKKRISQEGLEHHHHHH | not soluble
18 | ALNQMNNLMTQEATGLKILCAPDKDSSFVIYEDDGETMDYANGGYLKTVLDIKAGEQTVLSFRNEGEYETAVEDIYLDVIHREKAPYWVKADGHELPHFLHRKKFEAAQEGWYYSQSLKSVQIKYKNPKKDYEVIVSFEQFDMIGM | not soluble
19 | MERDGYKCRICDHSYLDIHYKDGNVENKNLENLIVLCKQCHYRLHQKERMESIKQAFEDFLDELSKNPIEVVIDFSFKKIVESNEEKIRREIIQGFTRPFGVISRIQEKVRDAIMKEIEEEIEKEQASTPEHLRKVVLERNNYRCSVCGYGYLEVHHVDGNILNNTLDNLVTLCRRCHRKVHYHPSFHTTPEDMDKCIRSFHHEFYSTIYEIMKNKKGNIRISIKFDQLGVKGVKISRAQFKRINGLFNHEVINDGIFKQWEREIKNYLSRLEWEQQKEIYRNVYFLLECILPKDSFEAFVNLARKGKFDRRTLREAKKVLKNSIKLEHHHHHH | soluble
20 | MSLKEKSVINAVKAEILVEKLVDKLMKEQELNPSEDILRAYYEFYKREFYRPSSVKLLGIYVKSKKEAERISQILKQGEVPSTEDVKVSKPLWYSIPTLPKYIRRNFRTLSVGEVSKPIKINDGYLVFKILDKKPAGFIPFERAKSLVKKMYLKEKRKEVFKKWLSEVLKKYQVRSTGKTCNTFISRFFFRKVNRQGEGHHHHHH | not soluble
21 | MESTQKDIKLEPDEFNYIIAPGAPESENLAENPENPVDLSEIPLETKPAWFPSSKGRSIVWEHITWVAESQRAACNYCAAEFQVKGGTSALLRHLKTIHPAAINFDPENPPPVARRKRKKMEDYTIVTEDTKSYMDNLLEQFLNVDDSAPRGGLPDHDSPQHMLVVDPQSRADSEIDAVIRNLQQETEQNGLLEPEPDQALKKLLGIDDGRCEEVIAIAAPIQQDEEKQVSSSSGGAQTKKRRADEQKLTENPALNSGKFSLSILSAIRRPPLPSSTATSSSAAAPQIPAMTSSAVASATSAAAAATPMMPAKYNAQAVQILDFEAKVLYNQSLHSTIAREDAMTTYYRMKSRKLELEIKKLERELGEEQDEAQEHEE | not soluble
